Results from paper PMC12245071.

How the values were obtained:
[1] = target: Soc-SpyCatcher displayed on the T4 phage capsid (T4-SpyCatcher phage) (bacteriophage T4); assay: co-sedimentation; sequential co-display on T4-SpyCatcher phage: HA-stem trimers added first, incubated, then S-ecto trimers at 1:1; 4 °C, PBS pH 7.4; SDS-PAGE quantification
[2] = target: Soc-SpyCatcher displayed on the T4 phage capsid (T4-SpyCatcher phage) (bacteriophage T4); assay: co-sedimentation; sequential co-display on T4-SpyCatcher phage: S-ecto trimers added first at a 0.25:1 ratio, incubated, then HA-stem trimers added at a 1:1 ratio; 4 °C, PBS pH 7.4; SDS-PAGE quantification
[3] = target: Soc-SpyCatcher displayed on the T4 phage capsid (T4-SpyCatcher phage) (bacteriophage T4); assay: co-sedimentation; T4-SpyCatcher phage incubated with SpyTagged S-ecto or HA-stem trimers alone at increasing ratios of trimer to Soc binding sites, 4 °C, 1-2 h, PBS pH 7.4; sedimented at 34 000 g, pellets washed twice, SDS-PAGE and band quantification; covalent SpyCatcher-SpyTag conjugation

Prefusion-stabilized SARS-CoV-2 spike ectodomain trimer with C-terminal SpyTag (from UniProt P0DTC2 14-1208) (domain or fragment)
copies per capsid (copies per capsid) [1]: 35 | copies per capsid (copies per capsid) [2]: 56 | copies per capsid (copies per capsid) [3]: 118
